# Results: PMC9482650, “Quantitative fragmentomics allow affinity mapping of interactomes” (Nature Communications, 2022)
# Where a chain is given by its changes, count along the chain named.
# T1: ARHGAP21, Q5T5U3
# T1 sequence (Q5T5U3 45-169, limits assumed, looked up): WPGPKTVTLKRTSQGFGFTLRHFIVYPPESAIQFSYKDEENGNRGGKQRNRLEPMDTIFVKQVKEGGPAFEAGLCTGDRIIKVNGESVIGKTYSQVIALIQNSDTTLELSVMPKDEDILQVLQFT
# T2: CARD11, Q9BXL7
# T2 sequence (Q9BXL7 662-765, limits assumed, looked up): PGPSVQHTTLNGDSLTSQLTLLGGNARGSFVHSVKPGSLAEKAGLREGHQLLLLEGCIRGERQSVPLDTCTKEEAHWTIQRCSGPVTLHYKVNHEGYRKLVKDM
# T3: FRMPD1, Q5SYB0
# T3 sequence (Q5SYB0 52-145, limits assumed, looked up): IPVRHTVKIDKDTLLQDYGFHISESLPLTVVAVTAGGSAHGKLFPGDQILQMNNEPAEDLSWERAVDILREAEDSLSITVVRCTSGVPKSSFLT
# T4: GRIP1_4, Q9Y3R0
# T4 sequence (Q9Y3R0 467-571, limits assumed, looked up): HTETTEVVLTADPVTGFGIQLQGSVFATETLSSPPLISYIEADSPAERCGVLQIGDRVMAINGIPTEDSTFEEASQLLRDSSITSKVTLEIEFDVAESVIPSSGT
# T5: HTRA4, P83105
# T5 sequence (P83105 378-476, limits assumed, looked up): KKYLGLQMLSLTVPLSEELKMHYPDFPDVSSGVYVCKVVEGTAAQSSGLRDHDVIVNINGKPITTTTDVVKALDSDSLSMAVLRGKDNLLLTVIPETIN
# T6: LIN7B, Q9HAP6
# T6 sequence (Q9HAP6 88-185, limits assumed, looked up): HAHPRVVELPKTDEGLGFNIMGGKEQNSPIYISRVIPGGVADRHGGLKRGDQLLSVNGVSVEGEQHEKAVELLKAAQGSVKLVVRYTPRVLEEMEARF
# T7: LIN7C, Q9NUP9
# T7 sequence (Q9NUP9 88-185, limits assumed, looked up): T6 sequence (Q9HAP6 88-185, limits assumed, looked up) with A2S, D13E, V35I, V40I, Q65H, S79K, R89K, A96S
# T8: LNX2_3, Q8N448
# T8 sequence (Q8N448 463-564, limits assumed, looked up): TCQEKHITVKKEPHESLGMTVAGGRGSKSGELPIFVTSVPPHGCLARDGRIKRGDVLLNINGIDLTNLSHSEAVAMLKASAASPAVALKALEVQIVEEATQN
# T9: MPP2, Q14168
# T9 sequence (Q14168 180-250, limits assumed, looked up): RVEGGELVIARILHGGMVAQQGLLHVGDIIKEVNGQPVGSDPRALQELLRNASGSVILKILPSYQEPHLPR
# T10: PDZD2_2, O15018
# T10 sequence (O15018 329-429, limits assumed, looked up): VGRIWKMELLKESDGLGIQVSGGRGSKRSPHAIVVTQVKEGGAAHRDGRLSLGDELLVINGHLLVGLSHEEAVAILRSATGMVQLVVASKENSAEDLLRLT
# T11: PDZD7_3, Q9H5P4
# T11 sequence (Q9H5P4 857-944, limits assumed, looked up): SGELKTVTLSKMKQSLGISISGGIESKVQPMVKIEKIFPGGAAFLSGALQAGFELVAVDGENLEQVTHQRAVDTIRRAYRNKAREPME
# Tests used:
# Test in all cases: holdup assay
# Design in all cases: key: below the threshold = too weak to quantify, mostly under pKd 3.1 to 4
# Conditions in all cases: plain residues with an end cap or a label only (N-terminal biotin on a linker: ado-ado)
# AHNAK1, Q09666 = biological target: AHNAK1, Q09666
# AHNAK1, Q09666, sequence (Q09666 4-100): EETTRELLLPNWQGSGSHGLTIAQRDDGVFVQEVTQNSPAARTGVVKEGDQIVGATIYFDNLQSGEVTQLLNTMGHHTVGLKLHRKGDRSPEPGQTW
# ARHGAP21, Q5T5U3 = biological target: T1, ARHGAP21, Q5T5U3
# CARD11, Q9BXL7 = biological target: T2, CARD11, Q9BXL7
# DLG4_2, P78352 = biological target: DLG4_2, P78352
# DLG4_2, P78352, sequence (P78352 155-259): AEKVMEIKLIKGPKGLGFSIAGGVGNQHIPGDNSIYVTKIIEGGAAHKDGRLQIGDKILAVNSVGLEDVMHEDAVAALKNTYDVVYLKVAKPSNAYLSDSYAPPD
# FRMPD1, Q5SYB0 = biological target: T3, FRMPD1, Q5SYB0
# FRMPD2_1, Q68DX3 = biological target: FRMPD2_1, Q68DX3
# FRMPD2_1, Q68DX3, sequence (Q68DX3 770-861): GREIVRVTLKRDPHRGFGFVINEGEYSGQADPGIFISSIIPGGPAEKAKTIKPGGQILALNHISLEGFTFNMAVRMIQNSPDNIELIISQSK
# FRMPD2_2, Q68DX3 = biological target: FRMPD2_2, Q68DX3
# FRMPD2_2, Q68DX3, sequence (Q68DX3 944-1038): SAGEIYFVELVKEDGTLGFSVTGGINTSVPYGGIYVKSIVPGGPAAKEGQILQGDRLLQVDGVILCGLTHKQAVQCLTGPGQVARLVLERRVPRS
# GRID2IP_1, A4D2P6 = biological target: GRID2IP_1, A4D2P6
# GRID2IP_1, A4D2P6, sequence (A4D2P6 1-87): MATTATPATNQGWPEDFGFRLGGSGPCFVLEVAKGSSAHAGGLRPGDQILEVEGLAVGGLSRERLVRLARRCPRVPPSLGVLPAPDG
# GRIP1_4, Q9Y3R0 = biological target: T4, GRIP1_4, Q9Y3R0
# HTRA4, P83105 = biological target: T5, HTRA4, P83105
# IL16_4, Q14005 = biological target: IL16_4, Q14005
# IL16_4, Q14005, sequence (Q14005 1229-1329): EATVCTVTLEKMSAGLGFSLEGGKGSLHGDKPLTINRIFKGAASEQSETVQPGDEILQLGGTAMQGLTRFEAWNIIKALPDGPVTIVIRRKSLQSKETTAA
# Inadl_1, Q8NI35 = biological target: Inadl_1, Q8NI35
# Inadl_1, Q8NI35, sequence (Q8NI35 113-229): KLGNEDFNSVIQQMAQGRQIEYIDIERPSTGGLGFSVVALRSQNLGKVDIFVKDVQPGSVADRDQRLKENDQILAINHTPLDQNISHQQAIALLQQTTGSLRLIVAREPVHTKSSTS
# Inadl_3, Q8NI35 = biological target: Inadl_3, Q8NI35
# Inadl_3, Q8NI35, sequence (Q8NI35 359-469): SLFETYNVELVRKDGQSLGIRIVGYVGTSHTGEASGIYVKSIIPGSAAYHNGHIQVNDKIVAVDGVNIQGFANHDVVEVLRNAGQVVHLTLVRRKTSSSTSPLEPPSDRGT
# Inadl_6, Q8NI35 = biological target: Inadl_6, Q8NI35
# Inadl_6, Q8NI35, sequence (Q8NI35 1058-1167): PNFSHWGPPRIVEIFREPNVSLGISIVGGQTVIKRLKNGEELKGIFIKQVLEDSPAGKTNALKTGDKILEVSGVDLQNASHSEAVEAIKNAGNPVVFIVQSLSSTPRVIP
# Inadl_8, Q8NI35 = biological target: Inadl_8, Q8NI35
# Inadl_8, Q8NI35, sequence (Q8NI35 1425-1530): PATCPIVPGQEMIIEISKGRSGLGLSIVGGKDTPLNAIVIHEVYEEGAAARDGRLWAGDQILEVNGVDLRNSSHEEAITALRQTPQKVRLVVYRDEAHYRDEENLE
# Inadl_9, Q8NI35 = biological target: Inadl_9, Q8NI35
# Inadl_9, Q8NI35, sequence (Q8NI35 1530-1615): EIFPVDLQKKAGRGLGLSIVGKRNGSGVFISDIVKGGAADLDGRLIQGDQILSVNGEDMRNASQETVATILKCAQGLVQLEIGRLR
# LIN7B, Q9HAP6 = biological target: T6, LIN7B, Q9HAP6
# LIN7C, Q9NUP9 = biological target: T7, LIN7C, Q9NUP9
# LNX1_3, Q8TBB1 = biological target: LNX1_3, Q8TBB1
# LNX1_3, Q8TBB1, sequence (Q8TBB1 500-596): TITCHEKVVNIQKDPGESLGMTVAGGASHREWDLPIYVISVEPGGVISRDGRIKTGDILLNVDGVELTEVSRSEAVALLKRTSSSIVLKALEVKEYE
# LNX2_3, Q8N448 = biological target: T8, LNX2_3, Q8N448
# MAGI2_5, Q86UL8 = biological target: MAGI2_5, Q86UL8
# MAGI2_5, Q86UL8, sequence (Q86UL8 915-1017): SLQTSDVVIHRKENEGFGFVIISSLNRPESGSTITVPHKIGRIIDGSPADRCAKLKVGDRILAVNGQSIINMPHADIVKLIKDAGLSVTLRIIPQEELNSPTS
# MAST2, Q6P0Q8 = biological target: MAST2, Q6P0Q8
# MAST2, Q6P0Q8, sequence (Q6P0Q8 1099-1202): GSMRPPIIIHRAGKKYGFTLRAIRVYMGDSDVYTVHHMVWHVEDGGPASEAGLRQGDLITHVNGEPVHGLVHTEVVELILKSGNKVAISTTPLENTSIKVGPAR
# MPP2, Q14168 = biological target: T9, MPP2, Q14168
# NHERF4_1, Q86UT5-2 = biological target: NHERF4_1, Q86UT5-2
# NHERF4_1, Q86UT5-2, sequence (Q86UT5 other isoform, or with tags, fused parts or gaps): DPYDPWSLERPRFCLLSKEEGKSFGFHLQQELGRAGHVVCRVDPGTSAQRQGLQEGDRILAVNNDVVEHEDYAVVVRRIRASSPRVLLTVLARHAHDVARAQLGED
# NHERF4_4, Q86UT5 = biological target: NHERF4_4, Q86UT5
# NHERF4_4, Q86UT5, sequence (Q86UT5 464-550): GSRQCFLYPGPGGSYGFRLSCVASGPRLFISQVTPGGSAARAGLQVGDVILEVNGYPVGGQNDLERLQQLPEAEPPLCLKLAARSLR
# PDZD2_2, O15018 = biological target: T10, PDZD2_2, O15018
# PDZD7_3, Q9H5P4 = biological target: T11, PDZD7_3, Q9H5P4
binder,measurement,setting,value
"VISSDDLTEL [CAPN6, Q9Y6Q1]",pKd,"AHNAK1, Q09666",below the threshold
same,pKd,"ARHGAP21, Q5T5U3",below the threshold
same,pKd,"CARD11, Q9BXL7",below the threshold
same,pKd,"DLG4_2, P78352",below the threshold
same,pKd,"FRMPD1, Q5SYB0",below the threshold
same,pKd,"FRMPD2_1, Q68DX3",below the threshold
same,pKd,"FRMPD2_2, Q68DX3",below the threshold
same,pKd,"GRID2IP_1, A4D2P6",below the threshold
same,pKd,"GRIP1_4, Q9Y3R0",below the threshold
same,pKd,"HTRA4, P83105",3.92
same,pKd,"IL16_4, Q14005",3.7
same,pKd,"Inadl_1, Q8NI35",below the threshold
same,pKd,"Inadl_3, Q8NI35",below the threshold
same,pKd,"Inadl_6, Q8NI35",below the threshold
same,pKd,"Inadl_8, Q8NI35",below the threshold
same,pKd,"Inadl_9, Q8NI35",below the threshold
same,pKd,"LIN7B, Q9HAP6",3.56
same,pKd,"LIN7C, Q9NUP9",below the threshold
same,pKd,"LNX1_3, Q8TBB1",below the threshold
same,pKd,"LNX2_3, Q8N448",below the threshold
same,pKd,"MAGI2_5, Q86UL8",3.53
same,pKd,"MAST2, Q6P0Q8",5.67
same,pKd,"MPP2, Q14168",below the threshold
same,pKd,"NHERF4_1, Q86UT5-2",3.94
same,pKd,"NHERF4_4, Q86UT5",below the threshold
same,pKd,"PDZD2_2, O15018",4.39
same,pKd,"PDZD7_3, Q9H5P4",3.87
"RGKNRRQSIF [CDK18, Q07002]",pKd,"AHNAK1, Q09666",below the threshold
same,pKd,"ARHGAP21, Q5T5U3",below the threshold
same,pKd,"CARD11, Q9BXL7",below the threshold
same,pKd,"DLG4_2, P78352",3.75
same,pKd,"FRMPD1, Q5SYB0",below the threshold
same,pKd,"FRMPD2_1, Q68DX3",3.5
same,pKd,"FRMPD2_2, Q68DX3",below the threshold
same,pKd,"GRID2IP_1, A4D2P6",below the threshold
same,pKd,"GRIP1_4, Q9Y3R0",below the threshold
same,pKd,"HTRA4, P83105",below the threshold
same,pKd,"IL16_4, Q14005",below the threshold
same,pKd,"Inadl_1, Q8NI35",below the threshold
same,pKd,"Inadl_3, Q8NI35",below the threshold
same,pKd,"Inadl_6, Q8NI35",below the threshold
same,pKd,"Inadl_8, Q8NI35",below the threshold
same,pKd,"Inadl_9, Q8NI35",below the threshold
same,pKd,"LIN7B, Q9HAP6",4.03
same,pKd,"LIN7C, Q9NUP9",3.5
same,pKd,"LNX1_3, Q8TBB1",below the threshold
same,pKd,"LNX2_3, Q8N448",below the threshold
same,pKd,"MAGI2_5, Q86UL8",below the threshold
same,pKd,"MAST2, Q6P0Q8",4.34
same,pKd,"MPP2, Q14168",3.54
same,pKd,"NHERF4_1, Q86UT5-2",3.87
same,pKd,"NHERF4_4, Q86UT5",below the threshold
same,pKd,"PDZD2_2, O15018",below the threshold
same,pKd,"PDZD7_3, Q9H5P4",below the threshold
"NKSEPFLTWL [WWTR1, Q9GZV5]",pKd,"AHNAK1, Q09666",below the threshold
same,pKd,"ARHGAP21, Q5T5U3",4.88
same,pKd,"CARD11, Q9BXL7",below the threshold
same,pKd,"DLG4_2, P78352",3.54
same,pKd,"FRMPD1, Q5SYB0",below the threshold
same,pKd,"FRMPD2_1, Q68DX3",below the threshold
same,pKd,"FRMPD2_2, Q68DX3",4.29
same,pKd,"GRID2IP_1, A4D2P6",below the threshold
same,pKd,"GRIP1_4, Q9Y3R0",below the threshold
same,pKd,"HTRA4, P83105",4.6
same,pKd,"IL16_4, Q14005",below the threshold
same,pKd,"Inadl_1, Q8NI35",4.52
same,pKd,"Inadl_3, Q8NI35",4.35
same,pKd,"Inadl_6, Q8NI35",5.68
same,pKd,"Inadl_8, Q8NI35",below the threshold
same,pKd,"Inadl_9, Q8NI35",4.23
same,pKd,"LIN7B, Q9HAP6",below the threshold
same,pKd,"LIN7C, Q9NUP9",3.58
same,pKd,"LNX1_3, Q8TBB1",below the threshold
same,pKd,"LNX2_3, Q8N448",below the threshold
same,pKd,"MAGI2_5, Q86UL8",3.94
same,pKd,"MAST2, Q6P0Q8",5.65
same,pKd,"MPP2, Q14168",3.62
same,pKd,"NHERF4_1, Q86UT5-2",4.46
same,pKd,"NHERF4_4, Q86UT5",4.21
same,pKd,"PDZD2_2, O15018",5.89
same,pKd,"PDZD7_3, Q9H5P4",5.12
"QLGSPTADLA [SIPA1, Q96FS4]",pKd,"AHNAK1, Q09666",below the threshold
same,pKd,"ARHGAP21, Q5T5U3",below the threshold
same,pKd,"CARD11, Q9BXL7",below the threshold
same,pKd,"DLG4_2, P78352",3.54
same,pKd,"FRMPD1, Q5SYB0",below the threshold
same,pKd,"FRMPD2_1, Q68DX3",below the threshold
same,pKd,"FRMPD2_2, Q68DX3",below the threshold
same,pKd,"GRID2IP_1, A4D2P6",below the threshold
same,pKd,"GRIP1_4, Q9Y3R0",below the threshold
same,pKd,"HTRA4, P83105",below the threshold
same,pKd,"IL16_4, Q14005",below the threshold
same,pKd,"Inadl_1, Q8NI35",below the threshold
same,pKd,"Inadl_3, Q8NI35",below the threshold
same,pKd,"Inadl_6, Q8NI35",below the threshold
same,pKd,"Inadl_8, Q8NI35",below the threshold
same,pKd,"Inadl_9, Q8NI35",below the threshold
same,pKd,"LIN7B, Q9HAP6",3.9
same,pKd,"LIN7C, Q9NUP9",3.69
same,pKd,"LNX1_3, Q8TBB1",below the threshold
same,pKd,"LNX2_3, Q8N448",below the threshold
same,pKd,"MAGI2_5, Q86UL8",below the threshold
same,pKd,"MAST2, Q6P0Q8",below the threshold
same,pKd,"MPP2, Q14168",below the threshold
same,pKd,"NHERF4_1, Q86UT5-2",below the threshold
same,pKd,"NHERF4_4, Q86UT5",below the threshold
same,pKd,"PDZD2_2, O15018",below the threshold
same,pKd,"PDZD7_3, Q9H5P4",below the threshold
"PSVYSRSQYV [CLDN8, P56748]",pKd,"AHNAK1, Q09666",below the threshold
same,pKd,"ARHGAP21, Q5T5U3",4.12
same,pKd,"CARD11, Q9BXL7",below the threshold
same,pKd,"DLG4_2, P78352",3.79
same,pKd,"FRMPD1, Q5SYB0",below the threshold
same,pKd,"FRMPD2_1, Q68DX3",4.36
same,pKd,"FRMPD2_2, Q68DX3",below the threshold
same,pKd,"GRID2IP_1, A4D2P6",below the threshold
same,pKd,"GRIP1_4, Q9Y3R0",below the threshold
same,pKd,"HTRA4, P83105",4.23
same,pKd,"IL16_4, Q14005",below the threshold
same,pKd,"Inadl_1, Q8NI35",below the threshold
same,pKd,"Inadl_3, Q8NI35",below the threshold
same,pKd,"Inadl_6, Q8NI35",below the threshold
same,pKd,"Inadl_8, Q8NI35",3.84
same,pKd,"Inadl_9, Q8NI35",4.36
same,pKd,"LIN7B, Q9HAP6",below the threshold
same,pKd,"LIN7C, Q9NUP9",below the threshold
same,pKd,"LNX1_3, Q8TBB1",below the threshold
same,pKd,"LNX2_3, Q8N448",below the threshold
same,pKd,"MAGI2_5, Q86UL8",below the threshold
same,pKd,"MAST2, Q6P0Q8",below the threshold
same,pKd,"MPP2, Q14168",below the threshold
same,pKd,"NHERF4_1, Q86UT5-2",4.03
same,pKd,"NHERF4_4, Q86UT5",below the threshold
same,pKd,"PDZD2_2, O15018",4.55
same,pKd,"PDZD7_3, Q9H5P4",below the threshold
